Three molecules from patent EP4692123A1, “ANTI-BCAM ANTIBODY AND ANTIBODY-DRUG CONJUGATE” (priority 2023, dated 2024) can be followed below.

Assay [1] deals with T1, human BCAM protein (10238-H08H, SinoBiological, China) (human, UniProt P50895 32-547).
T1 construct: Bought recombinant protein; also called antigen protein; Lu
T1 sequence (looked up): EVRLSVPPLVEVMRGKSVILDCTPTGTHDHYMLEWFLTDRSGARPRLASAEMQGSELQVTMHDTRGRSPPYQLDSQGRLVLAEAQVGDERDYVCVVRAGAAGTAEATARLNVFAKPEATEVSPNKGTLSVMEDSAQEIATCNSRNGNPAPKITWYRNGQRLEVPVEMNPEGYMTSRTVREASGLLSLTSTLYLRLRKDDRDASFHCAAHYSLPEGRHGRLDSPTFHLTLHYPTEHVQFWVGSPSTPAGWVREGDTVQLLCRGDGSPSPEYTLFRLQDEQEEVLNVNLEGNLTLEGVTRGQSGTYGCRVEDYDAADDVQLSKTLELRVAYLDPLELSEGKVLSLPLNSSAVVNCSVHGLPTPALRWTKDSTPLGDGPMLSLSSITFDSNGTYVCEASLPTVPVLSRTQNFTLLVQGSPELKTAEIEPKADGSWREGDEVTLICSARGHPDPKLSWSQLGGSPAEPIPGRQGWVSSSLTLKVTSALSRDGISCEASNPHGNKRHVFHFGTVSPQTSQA
As to the kind of experiment: BLI (Octet R8), human BCAM amine-coupled on AR2G biosensors, antibody in solution, 1:1 model. (BLI is a label-free optical method that tracks binding on a fibre tip over time.)

In assay [2] the target is T1, human BCAM protein (10238-H08H, …). As to the kind of experiment: ELISA, plate coated with human BCAM, anti-human IgG Fc-HRP detection. (In general: ELISA stands for enzyme-linked immunosorbent assay.)
Assay [3] addresses T2, human BCAM antigen protein expressed on the cell surface (human, UniProt P50895 32-628).
T2 construct: whole, on cells; also called human BCAM expressed on the cell surface; BCAM on HEK293FT cells transfected with the 293FT/BCAM plasmid
T2 sequence (looked up): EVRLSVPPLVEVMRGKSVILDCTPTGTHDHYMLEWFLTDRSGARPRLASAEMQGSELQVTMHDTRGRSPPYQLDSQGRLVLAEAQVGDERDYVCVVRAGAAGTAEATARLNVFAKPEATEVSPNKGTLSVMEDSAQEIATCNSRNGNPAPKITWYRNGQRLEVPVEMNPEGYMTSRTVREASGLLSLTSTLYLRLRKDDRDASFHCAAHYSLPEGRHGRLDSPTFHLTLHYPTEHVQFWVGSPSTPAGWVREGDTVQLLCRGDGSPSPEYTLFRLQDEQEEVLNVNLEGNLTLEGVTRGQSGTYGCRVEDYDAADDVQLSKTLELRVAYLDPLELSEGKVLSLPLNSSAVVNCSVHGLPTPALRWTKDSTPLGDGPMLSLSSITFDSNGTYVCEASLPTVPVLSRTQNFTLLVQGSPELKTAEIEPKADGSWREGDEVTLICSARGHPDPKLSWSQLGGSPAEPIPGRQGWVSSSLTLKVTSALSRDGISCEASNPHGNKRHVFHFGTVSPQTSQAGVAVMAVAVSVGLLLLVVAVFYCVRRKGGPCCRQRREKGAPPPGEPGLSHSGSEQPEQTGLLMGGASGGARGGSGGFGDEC
As to the kind of experiment: flow cytometry on HEK293FT cells transfected with human BCAM. In general terms: A flow cytometer gives signals particle by particle.

The test system of the next assay is OVCAR3. As to the kind of experiment: In vitro anticancer effect, CellTiter-Glo cell viability. The following applies: OVCAR3, 72 hours. It is filed as cell-based, human. How it is done: (§1) An in vitro experiment was conducted to confirm the anticancer effect of the Ab-II antibody-drug conjugate produced in Example 4 on human cell lines that express high levels of BCAM.
(§2) 5 x 10^3 cells of SK-BR-3 (human breast cancer cell line, KCLB), OVCAR3 (human ovarian cancer cell line, KCLB), and DU145 (human prostate cancer cell line, KCLB) were seeded into a 96-well plate (3595, Corning, USA). The next day, after confirming cell attachment to the plate, the existing cell culture was removed. Ab-II, produced in Example 4, was serially diluted in cell culture medium from 1 µM in a 5-fold dilution series across 8 points (down to 12.8 pM), and 200 µL was added to each well. On the day of drug treatment, the luminescence of the negative control (0% control, untreated with the drug) was measured. The culture medium was removed, 100 µL of CellTiter-Glo® (Promega, USA) solution was added to each well, and after reacting for 10 minutes at room temperature, the luminescence was measured with a microplate reader (Synergy H1, Biotek, USA). The experimental group treated with the drug and the positive control group (100% control, untreated with the drug) were reacted for 72 hours in a 37°C CO2 incubator. Afterward, the culture medium was removed, 100 µL of CellTiter-Glo® solution was added to each well, and after reacting for 10 minutes at room temperature, the luminescence was measured with the microplate reader. The % cell viability for Ab-II was calculated by substituting into the formula: [(Ab-II treated group) - (0% control group)] / [(100% control group) - (0% control group)]. The GI50 (half-maximal growth inhibition concentration) value of Ab-II for each cell line was calculated using GraphPad Prism (GraphPad software Inc., USA) based on the % cell viability.

The next assay relates to DU145. Described as above. Format: cell-based, human. The following applies: DU145, 72 hours. Here is the method:
as §1, §2

The test system of a further assay is SK-BR-3. Described as above. It is filed as cell-based, human. The following applies: SK-BR-3, 72 hours. Here is the method: as §1, §2
For assay [4], the target named is T1, human BCAM protein (10238-H08H, …). The assay is described as follows: ELISA, plate coated with 7 nM human BCAM, anti-human IgG Fc-HRP detection.

Several values for one entry are separate records, joined by “and”; a condition that tells them apart may be missing. Equal values may be shown once.

B1: Ab-I antibody (anti-BCAM human IgG4 antibody) (antibody, V domains shown)
VH: EVQLVESGGGLVKPGGSLRLSCAASGFTFSSYSMNWVRQAPGKGLEWVSSISSSSSYIYYADSVKGRFTISRDNAKNSLYLQMNSLRAEDTAVYYCARIIGGWLGDYWGQGTLVTVSS
VL: NIQMTQSPSSVSASVGDRVTITCRASQGISSWLAWYQQKPGKAPKLLIYAASSLRSGVPSRFSGSGSGTDFTLTISSLQPEDFATYYCQQANSFPPPTFGGGTKVEIK
notes: From a human scFv phage library, expressed in ExpiCHO-S
On to B1, for which, in assay [1], the Kd – broadly, a measure of binding affinity in units of concentration – turned out to be 991 pM; the koff (usually the first-order rate constant of dissociation) was found to be 0.00216 s⁻¹; the kon (as a rule, the second-order rate constant of association) was 2.18e+06 M⁻¹ s⁻¹. For the same molecule, a half-maximal effect in assay [2] (EC50) was put at 124 pM. The EC50 (usually the concentration that produces a half-maximal response) in assay [3] is 0.594 nM and 0.086 µg/mL.

B2: Ab-II (conjugate)
VH: EVQLVESGGGLVKPGGSLRLSCAASGFTFSSYSMNWVRQAPGKGLEWVSSISSSSSYIYYADSVKGRFTISRDNAKNSLYLQMNSLRAEDTAVYYCARIIGGWLGDYWGQGTLVTVSS
VL: NIQMTQSPSSVSASVGDRVTITCRASQGISSWLAWYQQKPGKAPKLLIYAASSLRSGVPSRFSGSGSGTDFTLTISSLQPEDFATYYCQQANSFPPPTFGGGTKVEIK
In the case of B2, the GI50 (usually the concentration giving 50% growth inhibition) was determined as 350 pM with OVCAR3, 17000 pM with DU145 and 210 pM with SK-BR-3.

B3: Ab-II antibody-drug conjugate (antibody, DAR 5.3, V domains shown)
VH: EVQLVESGGGLVKPGGSLRLSCAASGFTFSSYSMNWVRQAPGKGLEWVSSISSSSSYIYYADSVKGRFTISRDNAKNSLYLQMNSLRAEDTAVYYCARIIGGWLGDYWGQGTLVTVSS
VL: NIQMTQSPSSVSASVGDRVTITCRASQGISSWLAWYQQKPGKAPKLLIYAASSLRSGVPSRFSGSGSGTDFTLTISSLQPEDFATYYCQQANSFPPPTFGGGTKVEIK
modifications: Compound 1 conjugated through its maleimide group to antibody cysteine side chains after partial reduction of the disulfide bonds; positions not given; DAR 5.3
notes: Calculated DAR 5.3; also called anti-BCAM antibody-drug conjugate Ab-II
As to B3, a half-maximal response in assay [4] (EC50) required 269 pM. In other words, the sub-nanomolar range.
